# Patent US20160257759A1 (SORRENTO THERAPEUTICS, published 2016)
# T1: biotinylated human delta-like 1 (DLL1) (human, UniProt O00548 18-540, limits assumed, biotinylated (sites not given))
# T1 sequence (looked up): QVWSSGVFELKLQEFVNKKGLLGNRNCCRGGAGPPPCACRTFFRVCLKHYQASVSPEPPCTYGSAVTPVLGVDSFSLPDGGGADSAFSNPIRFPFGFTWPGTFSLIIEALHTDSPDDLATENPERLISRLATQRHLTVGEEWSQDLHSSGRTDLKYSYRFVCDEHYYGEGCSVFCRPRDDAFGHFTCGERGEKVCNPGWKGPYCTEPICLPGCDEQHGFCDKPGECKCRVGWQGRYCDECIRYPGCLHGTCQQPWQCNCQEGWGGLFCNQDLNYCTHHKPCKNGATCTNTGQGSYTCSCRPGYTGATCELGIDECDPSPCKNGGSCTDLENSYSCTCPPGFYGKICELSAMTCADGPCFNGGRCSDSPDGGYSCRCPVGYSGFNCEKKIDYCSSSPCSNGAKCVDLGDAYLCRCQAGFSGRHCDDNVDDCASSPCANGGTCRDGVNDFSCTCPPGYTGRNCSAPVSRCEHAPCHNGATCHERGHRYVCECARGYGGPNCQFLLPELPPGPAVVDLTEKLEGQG
# Experiments:
# [1] = target: T2, human JAG1 on cells (K562 cells; Calu-6 cells) (human, UniProt P78504 34-1218); test: flow cytometry on K562 cells, IgG titrated, PE anti-human IgG, median fluorescence
# T2 construct: whole, on cells; Calu-6 are called JAG-1 expressing cells; also called JAG-1 expressing cells
# T2 sequence (P78504 34-1218): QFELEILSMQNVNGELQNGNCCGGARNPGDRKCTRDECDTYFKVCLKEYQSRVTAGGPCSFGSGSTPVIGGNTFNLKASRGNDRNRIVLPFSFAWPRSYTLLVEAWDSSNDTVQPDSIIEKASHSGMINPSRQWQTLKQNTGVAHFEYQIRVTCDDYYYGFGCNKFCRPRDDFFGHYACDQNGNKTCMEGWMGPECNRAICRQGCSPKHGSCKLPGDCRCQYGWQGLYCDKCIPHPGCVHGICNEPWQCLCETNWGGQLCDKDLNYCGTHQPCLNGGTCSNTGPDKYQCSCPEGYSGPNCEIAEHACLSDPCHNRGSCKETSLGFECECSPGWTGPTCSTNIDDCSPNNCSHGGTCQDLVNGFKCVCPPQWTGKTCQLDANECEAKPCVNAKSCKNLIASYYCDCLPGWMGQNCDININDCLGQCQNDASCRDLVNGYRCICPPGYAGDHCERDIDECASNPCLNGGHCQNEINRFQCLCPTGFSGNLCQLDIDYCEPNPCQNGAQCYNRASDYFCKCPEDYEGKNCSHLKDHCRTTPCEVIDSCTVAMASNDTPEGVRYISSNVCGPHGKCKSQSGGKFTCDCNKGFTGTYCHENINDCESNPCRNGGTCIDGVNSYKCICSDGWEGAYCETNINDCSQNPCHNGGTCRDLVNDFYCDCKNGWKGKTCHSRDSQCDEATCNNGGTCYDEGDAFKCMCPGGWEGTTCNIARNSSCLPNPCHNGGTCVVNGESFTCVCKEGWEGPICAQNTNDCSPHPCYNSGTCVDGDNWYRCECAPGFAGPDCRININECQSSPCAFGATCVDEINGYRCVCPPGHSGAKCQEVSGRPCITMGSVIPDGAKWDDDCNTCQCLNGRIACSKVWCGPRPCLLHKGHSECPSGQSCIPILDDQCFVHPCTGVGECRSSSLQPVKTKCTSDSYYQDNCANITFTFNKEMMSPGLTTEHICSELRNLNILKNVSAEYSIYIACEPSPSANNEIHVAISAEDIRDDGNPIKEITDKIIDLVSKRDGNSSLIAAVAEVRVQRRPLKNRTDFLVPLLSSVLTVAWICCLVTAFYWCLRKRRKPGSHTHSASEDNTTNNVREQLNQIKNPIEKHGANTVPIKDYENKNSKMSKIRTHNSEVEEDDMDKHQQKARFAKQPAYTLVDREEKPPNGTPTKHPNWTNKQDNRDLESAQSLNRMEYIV
# Method: This example describes a cellular binding assay to determine the EC₅₀ for certain anti-JAG1 antibodies binding to K562 cells (ATCC CCL-243), where the concentration at which 50% binding saturation (EC₅₀) is reached. In this example, K562 cells were resuspended in FACS Buffer (2% Fetal Bovine Serum in PBS) at 1×10⁶ cells/ml. 50 μl (0.5×10⁵ cells) were aliquoted into the wells of a 96-well plate. Plated cells were spun down and the supernatant discarded. Cells were resuspended in serially diluted concentrations of each JAG1 IgG in 30 μl FACS Buffer done in triplicate. The antibodies and cells were incubated for 1 hr at 4° C. and then washed 2× with FACS Buffer. Cells were resuspended in 50 μl goat anti-human IgG (γ-chain specific)-PE-conjugated secondary antibody (Southern Biotech #2040-09) diluted 1:750 in FACS Buffer. Cells were further incubated in the dark for 30 min at 4° C. and then washed 1× with FACS Buffer. The cells were resuspended in a final volume of 30 μl FACS Buffer and analyzed using an Intellicyt Flow Cytometer. Median fluorescence in the FL-2H channel was determined using FlowJo software and EC₅₀ value was determined by a variable slope non-linear regression using ForeCyte software.
# [2] = target: T2, human JAG1 on cells (K562 cells; Calu-6 …); test: cell-based or functional assay
# [3] = target: T1, biotinylated human delta-like 1 (DLL1); test: capture ELISA: B10 IgG captured on anti-human lambda, serially diluted biotinylated DLL1, neutravidin-AP, PNPP, absorbance
# Method: (§1) Finally, an ELISA assay was carried out to determine antibody cross-reactivity to delta-like 1 (DLL1) and delta-like 2 (DLL2). One ELISA plate was coated with anti-human lambda and another ELISA plate was coated with anti-human kappa overnight at 4° C. The next morning each plate was blocked with a 1:1 mixture of casein:Super Block for 2 hours at room temperature. The B10 IgG was diluted to 0.3 μg/ml in block and added to the anti-human lambda coated wells, while the JG1H7 IgG was diluted to 0.3 μg/ml in block and added to the anti-human kappa coated wells and incubated at room temperature for 3 hours. As a control, other wells were treated with only block. After washing, serially-diluted biotinylated antigen (JAG1, DLL1, DLL2) was added to a column with captured antibody and a control column with no antibody, and incubated 1 hour at room temperature. After washing, neutravidin-AP was added, incubated for 20 min at room temperature, the plate washed and developed with 1-step PNPP, and the plate analyzed in a plate reader.
# [4] = target: T1, biotinylated human delta-like 1 (DLL1); test: capture ELISA: JG1H7 IgG captured on anti-human kappa, serially diluted biotinylated DLL1, neutravidin-AP, PNPP, absorbance
# Method: as §1
# human JAG2-Fc = target: T3, human JAG2-Fc (human, UniProt Q9Y219 24-1080, limits assumed); test: ELISA: plate coated with human JAG2-Fc, serially diluted IgG, labeled goat anti-human Fd antibody, absorbance
# T3 construct: not shown: Fc
# T3 sequence (Q9Y219 24-1080 limits assumed): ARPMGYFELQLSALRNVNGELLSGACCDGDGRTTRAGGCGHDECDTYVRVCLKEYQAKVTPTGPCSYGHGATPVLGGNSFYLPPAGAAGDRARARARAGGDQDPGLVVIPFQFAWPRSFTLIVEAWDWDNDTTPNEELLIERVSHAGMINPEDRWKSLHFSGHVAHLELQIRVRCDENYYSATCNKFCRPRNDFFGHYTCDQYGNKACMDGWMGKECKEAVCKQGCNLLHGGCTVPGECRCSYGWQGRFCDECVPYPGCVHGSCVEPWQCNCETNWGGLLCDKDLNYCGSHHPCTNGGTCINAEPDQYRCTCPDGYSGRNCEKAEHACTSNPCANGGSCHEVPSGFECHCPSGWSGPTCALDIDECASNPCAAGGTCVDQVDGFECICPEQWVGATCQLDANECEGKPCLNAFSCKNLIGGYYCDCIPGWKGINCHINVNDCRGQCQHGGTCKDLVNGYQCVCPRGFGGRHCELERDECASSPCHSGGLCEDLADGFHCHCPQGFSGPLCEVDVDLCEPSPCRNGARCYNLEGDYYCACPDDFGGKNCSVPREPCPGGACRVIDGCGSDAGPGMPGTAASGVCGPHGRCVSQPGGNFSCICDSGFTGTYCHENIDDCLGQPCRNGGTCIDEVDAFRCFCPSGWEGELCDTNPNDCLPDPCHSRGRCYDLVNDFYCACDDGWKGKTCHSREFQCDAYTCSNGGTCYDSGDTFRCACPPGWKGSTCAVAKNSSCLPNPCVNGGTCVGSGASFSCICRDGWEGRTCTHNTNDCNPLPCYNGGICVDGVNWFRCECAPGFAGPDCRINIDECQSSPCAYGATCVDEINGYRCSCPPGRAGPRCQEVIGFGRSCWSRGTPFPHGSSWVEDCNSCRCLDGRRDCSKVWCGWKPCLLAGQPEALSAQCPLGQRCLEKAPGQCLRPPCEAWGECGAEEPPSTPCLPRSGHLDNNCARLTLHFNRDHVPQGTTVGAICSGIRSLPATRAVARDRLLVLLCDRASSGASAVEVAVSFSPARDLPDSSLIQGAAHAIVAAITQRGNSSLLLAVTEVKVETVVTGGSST
# Method: An ELISA assay was also carried out to determine the ability of the identified antibodies to bind to human JAG2. A 96-well ELISA plate was coated with human JAG2-Fc overnight. The next morning the plate was blocked with casein solution for 1 hour, followed by addition of serially diluted JG1H7 and JG1B10 IgG antibodies. As a control, antibodies were added to wells that were not coated with JAG2-Fc. After incubating for an hour, the plate was washed and labeled goat anti-human FD antibody was added for 30 minutes. The plate was washed, developed with substrate and the absorbance in each well measured on a spectrophotometer.
# [5] = target: T4, Recombinant human JAG1/His (human, UniProt P78504 34-1046, limits assumed); test: SPR (BiaCore), antibody captured on anti-human Fc CM5 chip, JAG1/His as analyte, 1:1 Langmuir fit
# T4 construct: Analyte of the BiaCore assay; also called human JAW [sic]; not shown: His tag
# Method: The binding affinity of antibody JG1H7 for human JAG1 was tested using a BiaCore assay. Specifically, anti-human Fc antibody (GE, BR-1008-39) was immobilized on a CM5 sensor chip to approximately 700 RU using standard NHS/EDC coupling methodology. Antibodies (about 10 μg/ml) were captured for 60 s at a flow rate 10 μl/min. Recombinant human JAG1/His was serially diluted in running buffer (HBS-EP). All measurements were conducted with a flow rate of 30 μL/min Surfaces were regenerated with 3M MgCl₂ for 60 s. A 1:1 (Langmuir) binding model was used to fit the data.
Binder,EC50 [1] [nM],"IC50 (nM) of killing of Calu-6 cells by the antibody pre-complexed with Protein G-DM1 (1:4), Cell Titer Glo after 6 days [2] [nM]",also measured
"JG1H11 (antibody, V domains shown) VH: EVQLVESGGGVVQPGRSLRLSCAASGFTFSSYGMHWVRQAPGKGLEWVAVISYDGSNKYYADSVKGRFTISRDNSKNTLYLQMNSLRAEDTAVYYCAKDDWNYALDYWGQGTLVTVSS VL: QPVLTQPASVSGSPGQSITISCTGTRSDVGGYSYVSWYQQHPGKAPKLIYDVTKRPSGVSNRFSGSKSGNTASLTISGLQAEDEADYYCSSYTSSSTYVFGTGTKVTVL",27,26.5,–
"JG1A7 (antibody, V domains shown) VH: QVQLVESGGGLVKPGGSLRLSCAASGFTFSDYYMSWIRQAPGKGLEWVSYISSSGSTIYYADSVKGRFTISRDNAKNSLYLQMNSLRAEDTAVYYCARVNSGYDAVDYWGQGTLVTVSS VL: QSALTQPPSVSGAPGQTVTISCTGSRSNIGTYDVHWYQQFAGSAPKLLIYHNNDRSSGVPDRFSGSKSGTSASLAITGLQAEDEAVYFCQSHDNVLGGVFGGGTKLTVL",< 1,–,–
"JH1F4 (antibody, V domains shown, also called JH-F4) VH: QVQLVQSGAEVKKPGASVKVSCKASGYTFTSYAMHWVRHAPGQRLEWMGWINAGNGNTKYSQKFQGRVTITRDTSASTAYMELSSLRSEDTAVYYCARDLDYYYGMDVWGQGTTVTVSS VL: QPVLTQPPSASGTPGQRVTISCSGSSSNIGSNIVNWYQQLPGTAPKLLIYSNNRRPSGVPDRFSGSKSGSSASLAISGLQSEDEADYYCAAWDATLGGLYVFGTGTKVTVL",97,–,–

# More lines, in order of falling EC50 [1], values ahead:
EC50 [1] [nM],Binder,"IC50 (nM) of killing of Calu-6 cells by the antibody pre-complexed with Protein G-DM1 (1:4), Cell Titer Glo after 6 days [2] [nM]",also measured
32,"JG1B10 (antibody, V domains shown, also called B10JAG1) VH: EVQLVESGGGLVQPGGSLRLSCAASGSTFSSYGMHWVRQAPGKGLEWVAVIWYDGSNKYYADSVKGRFTISRDNSKNTLYLQMNSLRAEDTAVYYCARGYNHDYWGQGTLVTVSS VL: LPVLTQPASVSGSPGQSITISCTGTSSDVGGYNYVSWYQQHPGKAPKLMIYDVSNRPSGVSNRFSGSKSGNTASLTISGLQAEDEADYYCSSYTSSSTYVFGIGTKLTVL",1.35,binding result [3]: no binding
16,"JG1C8 (antibody, V domains shown) VH: EVQLVQSGAEVKKPGSSVKVSCKASGGTFSSYAISWVRQAPGQGLEWMGWISAYNGNTNYAQKLQGRVTMTTDTSTSTAYMELRSLRSDDTAVYYCARSRYDFWSGYYSGMDVWGQGTTVTVSS VL: NFMLTQPRSVSGSPGQSVTISCTGTSSDVGGYHYVSWYQQHPGKAPKLIIYDVSRRPSGVPDRFSGSKSGNTASLTVSGLQAEDEADYYCSSYGGSNNFVFGTGTKLTVL",87.3,–
16,"JG1H7 (antibody, V domains shown, captured by anti-human Fc in the BiaCore assay) VH: QVQLVQSGGGLIQPGGSLRLSCAASAFTVSNFYMTWVRQAPGKGLEWVSVIDSGGNTYYADSVRGRFTISRDNSKNTLFLQMNSLRAEDTAVYYCARDLGYYYAMDVWGQGTTVTVSS VL: DIVMTQSPSSLSASVGDRVTITCRASQSISTSLNWYQQKPGKAPKLLIYAASSLQSGVPSRFSGSGSGTDFTLTISSLQPEDFATYYCQQSYSTPTFGQGTKLEIK",3.89,binding result [4]: no binding; EC50 (read off the curve) (human JAG2-Fc): ~0.1 µg/mL; Ka [5]: 4.8e+06 M⁻¹; Kd [5]: 208 nM; koff [5]: 0.0411 s⁻¹; kon [5]: 197000 M⁻¹ s⁻¹
